Test results reported in patent publication US20240173425A1, “HUMAN CD33 ANTIBODIES AND GLUCOCORTICOID CONJUGATES” (Eli Lilly and Company, priority 2022, published 2024).

Target: human CD33 on the cell surface of human monocytes / myeloid cells (human) (UniProt P20138)
Experiment: cell-based or functional assay

Sequence of human CD33 on the cell surface of human monocytes / myeloid cells (human) (P20138 18-364 limits assumed): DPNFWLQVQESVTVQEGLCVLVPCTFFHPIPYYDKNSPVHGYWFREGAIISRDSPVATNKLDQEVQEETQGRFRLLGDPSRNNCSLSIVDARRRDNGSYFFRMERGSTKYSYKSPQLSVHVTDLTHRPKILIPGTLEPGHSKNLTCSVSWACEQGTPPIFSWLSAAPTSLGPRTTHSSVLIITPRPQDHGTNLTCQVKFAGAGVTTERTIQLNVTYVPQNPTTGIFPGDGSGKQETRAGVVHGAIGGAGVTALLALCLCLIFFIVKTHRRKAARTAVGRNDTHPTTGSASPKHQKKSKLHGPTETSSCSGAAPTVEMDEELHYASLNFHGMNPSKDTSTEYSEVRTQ

% Internalization: 50.5%
Substance: Gemtuzumab (hIgG4PAA) (antibody)
